We go through 125 sequences from the supplement of paper PMC9112550, “Optimization of the antimicrobial peptide Bac7 by deep mutational scanning” (BMC Biology, 2022).

In this series the test system is Escherichia coli TOP10. Put plainly: shrunken log2 fold change of peptide-encoding DNA abundance (4.5 h post-induction vs induction); higher = less antimicrobial activity (less host growth inhibition). The note with it: time post-induction: 4.5 h; library: site-saturation at positions 5, 18, 19, 20.
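Also: peptides expressed intracellularly from a pBAD plasmid library in pooled LB shake-flask culture, induced with 0.3% L-arabinose, DNA abundance read by NGS, three biological replicates, DESeq2 with apeglm shrinkage.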

As to RRIRHRPPRLPRPRPRPFIHPRP, the “shrunken log2 fold change” value is -0.1.
The value for RRIRFRPPRLPRPRPRPCDDPRP was -0.00233; that for RRIRWRPPRLPRPRPRPWSQPRP was 0.298; that for RRIRKRPPRLPRPRPRPEGRPRP was 0.261.
The value for RRIRVRPPRLPRPRPRPLDVPRP was -0.277; that for RRIRIRPPRLPRPRPRPVHSPRP was -0.0158.
With RRIRVRPPRLPRPRPRPEHWPRP the figure was 0.28; with RRIRYRPPRLPRPRPRPFNGPRP, -0.0276; with RRIRCRPPRLPRPRPRPCRHPRP, -0.196.
Take RRIRGRPPRLPRPRPRPSKIPRP: the “shrunken log2 fold change” value was 0.149.
Regarding RRIRGRPPRLPRPRPRPCSKPRP, the “shrunken log2 fold change” value was 0.09.
With RRIRNRPPRLPRPRPRPNECPRP the figure was -0.124.
RRIRIRPPRLPRPRPRPAEWPRP: the “shrunken log2 fold change” value is -0.124.
As for RRIRFRPPRLPRPRPRPWHEPRP, the “shrunken log2 fold change” value was -0.00448.
The value for RRIRTRPPRLPRPRPRPSSSPRP was -0.164.
As to RRIRPRPPRLPRPRPRPRFTPRP, the “shrunken log2 fold change” value is 0.116.
With RRIRSRPPRLPRPRPRPLFHPRP the figure was -0.63.
The value for RRIRQRPPRLPRPRPRPPKPPRP was -0.0724; that for RRIRMRPPRLPRPRPRPVVHPRP was 0.0142; that for RRIRGRPPRLPRPRPRPGEWPRP was -0.0156.
With RRIRKRPPRLPRPRPRPHQNPRP the figure was 0.0256; with RRIRIRPPRLPRPRPRPMKYPRP, -0.104.
RRIRRRPPRLPRPRPRPPHSPRP: the “shrunken log2 fold change” value turned out to be 0.916.
As to RRIRKRPPRLPRPRPRPYADPRP, the “shrunken log2 fold change” value is -0.0355.
As to RRIRFRPPRLPRPRPRPPQQPRP, the “shrunken log2 fold change” value was -0.0751.
With RRIRERPPRLPRPRPRPGISPRP the figure was -0.017.
As for RRIRERPPRLPRPRPRPDWVPRP, the “shrunken log2 fold change” value turned out to be 0.0322.
With RRIRKRPPRLPRPRPRPTMIPRP the figure was -0.0569; with RRIRVRPPRLPRPRPRPFNTPRP, 2.64; with RRIRHRPPRLPRPRPRPADAPRP, -0.0349.
As for RRIRYRPPRLPRPRPRPHFEPRP, the “shrunken log2 fold change” value was -0.115.
With RRIRKRPPRLPRPRPRPQNSPRP, the “shrunken log2 fold change” value was -0.0372.
Consider RRIRQRPPRLPRPRPRPLTDPRP, for which the “shrunken log2 fold change” value came out at 0.132.
On to RRIRMRPPRLPRPRPRPDKPPRP, for which the “shrunken log2 fold change” value is -0.00474.
The value for RRIRGRPPRLPRPRPRPRCDPRP was 0.629.
With RRIRIRPPRLPRPRPRPRVYPRP the figure was 0.00283; with RRIRWRPPRLPRPRPRPCFSPRP, -0.176; with RRIRVRPPRLPRPRPRPPVKPRP, -0.112.
The value for RRIRLRPPRLPRPRPRPRAEPRP was 0.0944; that for RRIRCRPPRLPRPRPRPIEEPRP was 0.008.
RRIRFRPPRLPRPRPRPFVQPRP: the “shrunken log2 fold change” value was -0.694.
On to RRIRHRPPRLPRPRPRPWDWPRP, for which the “shrunken log2 fold change” value was -0.00132.
The value for RRIRVRPPRLPRPRPRPGKQPRP was 0.0812; that for RRIRFRPPRLPRPRPRPWSVPRP was -0.0111; that for RRIRERPPRLPRPRPRPLMWPRP was -0.101.
RRIRRRPPRLPRPRPRPSCPPRP: the “shrunken log2 fold change” value was 0.941.
The value for RRIRKRPPRLPRPRPRPINQPRP was -0.166; that for RRIRVRPPRLPRPRPRPWGVPRP was -0.15; that for RRIRERPPRLPRPRPRPQGYPRP was 0.0039.
With RRIRMRPPRLPRPRPRPHTAPRP the figure was -0.000764; with RRIRGRPPRLPRPRPRPEIDPRP, 1.63.
Turning to RRIRPRPPRLPRPRPRPANVPRP, the “shrunken log2 fold change” value was -0.122.
The value for RRIRARPPRLPRPRPRPIHCPRP was -0.189; that for RRIRPRPPRLPRPRPRPALEPRP was 0.313; that for RRIRARPPRLPRPRPRPCYPPRP was -0.209.
Consider RRIRLRPPRLPRPRPRPSWMPRP, for which the “shrunken log2 fold change” value is -0.167.
With RRIRSRPPRLPRPRPRPIGMPRP the figure was -0.35; with RRIRERPPRLPRPRPRPKIPPRP, -0.136; with RRIRARPPRLPRPRPRPLWIPRP, -0.0129.
Turning to RRIRFRPPRLPRPRPRPIDFPRP, the “shrunken log2 fold change” value was -0.0919.
Consider RRIRNRPPRLPRPRPRPYTEPRP, for which the “shrunken log2 fold change” value is -0.695.
Regarding RRIRTRPPRLPRPRPRPNKRPRP, the “shrunken log2 fold change” value was -0.265.
RRIRCRPPRLPRPRPRPQAMPRP: the “shrunken log2 fold change” value was 0.189.
With RRIRFRPPRLPRPRPRPKFNPRP the figure was -0.588; with RRIRFRPPRLPRPRPRPDYSPRP, -0.458; with RRIRTRPPRLPRPRPRPQQVPRP, -0.231.
RRIRYRPPRLPRPRPRPTQMPRP: the “shrunken log2 fold change” value was -0.213.
The value for RRIRSRPPRLPRPRPRPNKWPRP was -0.0551; that for RRIRSRPPRLPRPRPRPETWPRP was -0.0382.
The value for RRIRWRPPRLPRPRPRPEGIPRP was -0.00186; that for RRIRWRPPRLPRPRPRPNDEPRP was 0.0507.
Take RRIRKRPPRLPRPRPRPIDLPRP: the “shrunken log2 fold change” value is -0.0822.
The value for RRIRIRPPRLPRPRPRPIQEPRP was 0.0527; that for RRIRDRPPRLPRPRPRPEVNPRP was 0.0354.
The value for RRIRLRPPRLPRPRPRPDTTPRP was -0.138.
RRIRERPPRLPRPRPRPDEKPRP: the “shrunken log2 fold change” value is 0.147.
The value for RRIRIRPPRLPRPRPRPSSTPRP was -0.955; that for RRIRGRPPRLPRPRPRPMHNPRP was 0.383.
For the sequence RRIRWRPPRLPRPRPRPPHMPRP, the “shrunken log2 fold change” value is 0.112.
With RRIRFRPPRLPRPRPRPNFCPRP, the “shrunken log2 fold change” value was 0.0651.
The value for RRIRCRPPRLPRPRPRPAFIPRP was 0.0295.
Turning to RRIRGRPPRLPRPRPRPTLVPRP, the “shrunken log2 fold change” value was 1.87.
Regarding RRIRQRPPRLPRPRPRPIMFPRP, the “shrunken log2 fold change” value is -0.144.
The value for RRIRARPPRLPRPRPRPYRIPRP was 0.11.
Regarding RRIRSRPPRLPRPRPRPRRYPRP, the “shrunken log2 fold change” value was -0.0572.
The value for RRIRIRPPRLPRPRPRPMVIPRP was -0.154; that for RRIRDRPPRLPRPRPRPYYNPRP was -1.01.
The value for RRIRQRPPRLPRPRPRPFLNPRP was -0.118; that for RRIRCRPPRLPRPRPRPISIPRP was -0.443; that for RRIRDRPPRLPRPRPRPRPFPRP was 0.691.
For the sequence RRIRWRPPRLPRPRPRPKIKPRP, the “shrunken log2 fold change” value was -0.0556.
The value for RRIRMRPPRLPRPRPRPERKPRP was 2.06; that for RRIRGRPPRLPRPRPRPAKFPRP was 0.549.
Regarding RRIRSRPPRLPRPRPRPFMCPRP, the “shrunken log2 fold change” value is -0.255.
With RRIRKRPPRLPRPRPRPENSPRP the figure was -0.131; with RRIRMRPPRLPRPRPRPEALPRP, 3.81.
With RRIRIRPPRLPRPRPRPIHTPRP the figure was -0.907.
RRIRARPPRLPRPRPRPKQHPRP: the “shrunken log2 fold change” value turned out to be 0.312.
The value for RRIRLRPPRLPRPRPRPKDHPRP was -0.123.
Take RRIRGRPPRLPRPRPRPIHMPRP: the “shrunken log2 fold change” value was -0.0548.
The value for RRIRERPPRLPRPRPRPMPWPRP was 0.0819; that for RRIRQRPPRLPRPRPRPPCMPRP was -0.0968; that for RRIRCRPPRLPRPRPRPPKWPRP was 0.447.
The value for RRIRYRPPRLPRPRPRPISNPRP was -0.191.
RRIRCRPPRLPRPRPRPVWMPRP: the “shrunken log2 fold change” value was -0.179.
The value for RRIRMRPPRLPRPRPRPKSEPRP was 0.0246.
With RRIRMRPPRLPRPRPRPESHPRP the figure was 0.076; with RRIRDRPPRLPRPRPRPPIAPRP, -0.0649.
For RRIRRRPPRLPRPRPRPRRWPRP, the “shrunken log2 fold change” value is 0.386.
With RRIRVRPPRLPRPRPRPKNWPRP the figure was 0.185; with RRIRHRPPRLPRPRPRPSHRPRP, -0.548.
RRIRYRPPRLPRPRPRPGLTPRP: the “shrunken log2 fold change” value is -0.21.
On to RRIRVRPPRLPRPRPRPAMQPRP, for which the “shrunken log2 fold change” value is 0.193.
For RRIRDRPPRLPRPRPRPYYKPRP, the “shrunken log2 fold change” value was -0.195.
As for RRIRCRPPRLPRPRPRPWFCPRP, the “shrunken log2 fold change” value is -0.177.
The value for RRIRERPPRLPRPRPRPAVFPRP was 0.154.
For the sequence RRIRIRPPRLPRPRPRPLTQPRP, the “shrunken log2 fold change” value is -0.648.
With RRIRWRPPRLPRPRPRPMDPPRP the figure was 0.0622; with RRIRFRPPRLPRPRPRPKFVPRP, -0.0222; with RRIRDRPPRLPRPRPRPYFEPRP, -0.3.
On to RRIRTRPPRLPRPRPRPSGSPRP, for which the “shrunken log2 fold change” value amounted to 0.204.
The value for RRIRHRPPRLPRPRPRPPCMPRP was -0.245.
For the sequence RRIRPRPPRLPRPRPRPRGCPRP, the “shrunken log2 fold change” value was determined as 0.251.
The value for RRIRHRPPRLPRPRPRPHVFPRP was -0.0684; that for RRIRWRPPRLPRPRPRPWRLPRP was -0.172.
